Source: US20220089692A1

Molecular target: SARS-CoV-2 Spike RBD-His Recombinant Protein (SARS-CoV-2) (UniProt P0DTC2)
Test: monoclonal phage ELISA, SPIKE RBD coated 200 ng/well; helper phage control

M13KO7 auxiliary phage was tested, and the ELISA signal (OD450) was 0.0434.
